The source of these data is article PMC5039092 (FEBS letters, 2016).

Data set [1] deals with the molecule itself. The data set is described as follows: SDS-PAGE and Western blot. A general note: A western blot detects proteins with antibodies after separation by electrophoresis.
The data set “SEC” deals with the molecule itself. The data set is described as follows: SEC. On the technique in general: Size exclusion chromatography separates by hydrodynamic size, large species first.

Residue numbers refer to the chain shown, from its start. Names and notes keep the numbering of the source.

B1: C394S mutant of full length human adenosine A2a receptor with a C-terminal 10 histidine tag (receptor, UniProt P29274 1-412, looked up)
chain: MPIMGSSVYITVELAIAVLAILGNVLVCWAVWLNSNLQNVTNYFVVSLAAADIAVGVLAIPFAITISTGFCAACHGCLFIACFVLVLTQSSIFSLLAIAIDRYIAIRIPLRYNGLVTGTRAKGIIAICWVLSFAIGLTPMLGWNNCGQPKEGKNHSQGCGEGQVACLFEDVVPMNYMVYFNFFACVLVPLLLMLGVYLRIFLAARRQLKQMESQPLPGERARSTLQKEVHAAKSLAIIVGLFALCWLPLHIINCFTFFCPDCSHAPLWLMYLAIVLSHTNSVVNPFIYAYRIREFRQTFRKIIRSHVLRQQEPFKAAGTSARVLAAHGSDGEQVSLRLNGHPPGVWANGSAPHPERRPNGYALGLVSGGSAQESQGNTGLPDVELLSHELKGVSPEPPGLDDPLAQDGAGVS
For the protein B1, the binding result in data set [1] is “binds”.

B2: spin labeled wild type full length human adenosine A2a receptor with a C-terminal 10 histidine tag (receptor, UniProt P29274 1-412, looked up)
chain: B1 chain with S394C
modifications: nitroxide radical MTSL spin label attached to free cysteines (thiol of C394)
On to B2, for which the binding result in the data set “SEC” is on record as “binds”.
